In the RNAGym collection of RNA variant scans (doi:10.7554/elife.80360):

B1: CPEB3 Ribozyme (parent)
chain: GGGGGCCACAGCAGAAGCGUUCACGUCGCGGCCCCUGUCAGAUUCUGGUGAAUCUGCGAAUUCUGCUGU

Variants of: B1
Assay: self-cleavage, relative activity (ratio to wild type); higher = more cleavage; co-transcriptional

First: C7G U43C
Second: C9A C12A
The self-cleavage of the first is lower: 0.231 for the first, 0.806 for the second.

First: A8G C45G
Second: C7U C18G
The self-cleavage of the first is higher: 0.801 for the first, 0.104 for the second.

Compared with A8C C45G, C9A C27A is lower in self-cleavage: 0.984 for the first, 0.798 for the second.

Going from C7G G28A to C7G G28C, the self-cleavage rises from 0.0296 to 0.106.

Going from A8G A15G to C7U G14C, the self-cleavage falls from 0.777 to 0.417.

First: C9A A15U
Second: C9A A15C
The self-cleavage of the first is lower: 0.886 for the first, 0.931 for the second.

Going from C9A A23C to A8G C35U, the self-cleavage falls from 1.01 to 0.808.

Compared with A8U C45A, A8U C45G is lower in self-cleavage: 1.01 for the first, 0.958 for the second.

Going from C7G U69A to A8C C32A, the self-cleavage rises from 0.728 to 0.784.

First: C7G G25A
Second: A8U C35G
The self-cleavage of the first is lower: 0.107 for the first, 0.435 for the second.

First: A8C A59C
Second: C7A U62G
The self-cleavage of the first is higher: 0.725 for the first, 0.29 for the second.

Compared with A8U A10C, A8U A10G is lower in self-cleavage: 1.03 for the first, 0.937 for the second.

Compared with A8C G65C, A8C U55C is higher in self-cleavage: 0.635 for the first, 0.891 for the second.

Compared with A8U G65A, C7G C35A is lower in self-cleavage: 0.901 for the first, 0.13 for the second.

Compared with A8U G17A, C7U G41C is higher in self-cleavage: 0.388 for the first, 0.647 for the second.

Going from C7U A16G to A8C A40C, the self-cleavage falls from 0.908 to 0.639.

Compared with A8G U61A, C9A A52G is higher in self-cleavage: 0.379 for the first, 1.02 for the second.

Compared with C9A A52U, C9A A52C is lower in self-cleavage: 1.03 for the first, 1.01 for the second.

Compared with A8G C33G, A8C C18A is lower in self-cleavage: 0.488 for the first, 0.152 for the second.

First: A8U G37C
Second: A8C U61A
The self-cleavage of the first is lower: 0.169 for the first, 0.913 for the second.

Compared with A8U C18U, C7A U64C is lower in self-cleavage: 0.928 for the first, 0.336 for the second.

Going from A8G A16C to A8G A16G, the self-cleavage rises from 0.0896 to 0.458.

Going from C7U C57G to A8U C29A, the self-cleavage rises from 0.155 to 0.269.

First: C7G G47U
Second: C7G G47C
The self-cleavage of the first is higher: 0.636 for the first, 0.604 for the second.

First: C7G A23U
Second: C7G A23G
The self-cleavage of the first is higher: 0.645 for the first, 0.333 for the second.

Compared with A8U U69G, C7G U49A is lower in self-cleavage: 1.06 for the first, 0.444 for the second.

Going from C7G U49C to C7U C34U, the self-cleavage rises from 0.491 to 0.969.

Going from C7U C34G to A8G A10C, the self-cleavage rises from 0.287 to 0.666.

Going from A8G A10G to C7U C32U, the self-cleavage rises from 0.122 to 0.984.

Going from C7U U64G to A8U U53G, the self-cleavage falls from 0.899 to 0.891.

Going from A8U U53A to A8C A13U, the self-cleavage falls from 0.913 to 0.849.

First: A8C A13G
Second: A8U U64C
The self-cleavage of the first is higher: 0.987 for the first, 0.953 for the second.

First: A8U U64G
Second: C7G U21A
The self-cleavage of the first is higher: 0.87 for the first, 0.395 for the second.

First: C7G U21G
Second: C7G A13C
The self-cleavage of the first is lower: 0.119 for the first, 0.285 for the second.

Going from A8U A52C to A8C A51G, the self-cleavage falls from 0.975 to 0.962.

Compared with A8C A51C, C7A U46A is lower in self-cleavage: 0.981 for the first, 0.6 for the second.

First: C7U U43G
Second: A8G G31C
The self-cleavage of the first is higher: 0.757 for the first, 0.0995 for the second.

Compared with C7U G56A, A8G G50U is lower in self-cleavage: 0.916 for the first, 0.877 for the second.

First: A8G G50A
Second: C7U G68U
The self-cleavage of the first is lower: 0.868 for the first, 0.965 for the second.

Going from C7G G37A to C7G G37C, the self-cleavage falls from 0.153 to 0.118.

Compared with C7G G37U, C7U A60C is higher in self-cleavage: 0.179 for the first, 0.231 for the second.

Compared with C7U U49A, C7U A52U is lower in self-cleavage: 0.957 for the first, 0.91 for the second.

Compared with C7U A52G, C7G A52G is lower in self-cleavage: 0.957 for the first, 0.38 for the second.

Going from A8C G37C to A8U G11C, the self-cleavage rises from 0.239 to 0.873.

Going from A8G G58U to A8G G58A, the self-cleavage falls from 0.92 to 0.867.

Going from C7G C33U to C9A C22U, the self-cleavage rises from 0.253 to 0.424.

First: C9A C22A
Second: C9A C22G
The self-cleavage of the first is higher: 0.251 for the first, 0.181 for the second.

First: A8G U67A
Second: A8G C57U
The self-cleavage of the first is higher: 0.59 for the first, 0.303 for the second.

C9A A42G and C9A A42U are the same in self-cleavage: 0.997 for the first, 0.997 for the second.

Compared with A8C C54A, C7U U53C is lower in self-cleavage: 0.915 for the first, 0.784 for the second.

First: A8G A51G
Second: A8G A51U
The self-cleavage of the first is higher: 0.901 for the first, 0.772 for the second.

Compared with C7U G25U, A8U A59G is higher in self-cleavage: 0.089 for the first, 1 for the second.

Going from C7U C63G to C7G U26G, the self-cleavage falls from 0.603 to 0.233.

Going from C7G U26A to C7U U61G, the self-cleavage rises from 0.103 to 0.714.

Going from C7U A13U to C7U C12G, the self-cleavage rises from 0.693 to 0.822.

Compared with C7U C12U, C9A A16C is lower in self-cleavage: 0.94 for the first, 0.56 for the second.

Going from C9A A16G to A8C G14U, the self-cleavage falls from 0.992 to 0.723.

First: C7U C54G
Second: A8C C24A
The self-cleavage of the first is higher: 0.766 for the first, 0.707 for the second.

Compared with A8G G37A, A8G G37U is higher in self-cleavage: 0.128 for the first, 0.134 for the second.

First: A8C U38A
Second: A8C U38G
The self-cleavage of the first is higher: 0.897 for the first, 0.245 for the second.

Going from A8G U44A to A8G U44G, the self-cleavage rises from 0.607 to 0.651.

Compared with C7G G14A, A8C G50A is higher in self-cleavage: 0.0844 for the first, 1.02 for the second.

Compared with A8C G50U, A8C G50C is lower in self-cleavage: 1.03 for the first, 0.98 for the second.

First: C7G A40C
Second: A8U G14C
The self-cleavage of the first is lower: 0.17 for the first, 0.593 for the second.

First: A8U U62G
Second: A8U U62A
The self-cleavage of the first is lower: 0.945 for the first, 0.97 for the second.

Going from A8C U21A to A8C U21G, the self-cleavage falls from 0.972 to 0.501.

Compared with A8U G50U, C7A U61A is lower in self-cleavage: 1.01 for the first, 0.169 for the second.

First: A8U U21A
Second: C7A U67G
The self-cleavage of the first is higher: 0.994 for the first, 0.858 for the second.

Compared with C7A U67A, A8U G28A is lower in self-cleavage: 0.884 for the first, 0.141 for the second.

First: A8U G28U
Second: A8U C39U
The self-cleavage of the first is lower: 0.0893 for the first, 0.986 for the second.

First: A8C G28A
Second: C9A C24A
The self-cleavage of the first is lower: 0.215 for the first, 0.891 for the second.

Going from C9A C24U to C7G C24A, the self-cleavage falls from 0.934 to 0.0945.

Compared with C7A U44A, C7A U43A is lower in self-cleavage: 0.447 for the first, 0.266 for the second.

Going from C7A U43G to A8U A40G, the self-cleavage rises from 0.373 to 0.97.

Going from C7G A59U to C7G A59C, the self-cleavage falls from 0.167 to 0.148.

Going from C7U G48C to A8U U43G, the self-cleavage falls from 0.949 to 0.913.

Compared with C9A A10G, C9A A10C is higher in self-cleavage: 1.01 for the first, 1.02 for the second.

Going from C7G C12U to C7G C12A, the self-cleavage falls from 0.383 to 0.0557.

Compared with C7G C12G, C9A A40G is higher in self-cleavage: 0.223 for the first, 1 for the second.

Compared with A8U G41A, A8G U64G is lower in self-cleavage: 0.789 for the first, 0.304 for the second.

Compared with C7G G56U, A8U C63U is higher in self-cleavage: 0.177 for the first, 1.03 for the second.

Compared with A8U C63G, C7G G19C is lower in self-cleavage: 0.782 for the first, 0.106 for the second.

Compared with C7U U26G, C7U U26A is lower in self-cleavage: 0.762 for the first, 0.597 for the second.

C9A C32G gave a self-cleavage of 0.843.
